In the experiment the target is GFP-MG53 (mouse) (UniProt Q1XH17). The experiment can be described thus: cell-based or functional assay.
Sequence of UniProt Q1XH17 (Q1XH17 whole entry): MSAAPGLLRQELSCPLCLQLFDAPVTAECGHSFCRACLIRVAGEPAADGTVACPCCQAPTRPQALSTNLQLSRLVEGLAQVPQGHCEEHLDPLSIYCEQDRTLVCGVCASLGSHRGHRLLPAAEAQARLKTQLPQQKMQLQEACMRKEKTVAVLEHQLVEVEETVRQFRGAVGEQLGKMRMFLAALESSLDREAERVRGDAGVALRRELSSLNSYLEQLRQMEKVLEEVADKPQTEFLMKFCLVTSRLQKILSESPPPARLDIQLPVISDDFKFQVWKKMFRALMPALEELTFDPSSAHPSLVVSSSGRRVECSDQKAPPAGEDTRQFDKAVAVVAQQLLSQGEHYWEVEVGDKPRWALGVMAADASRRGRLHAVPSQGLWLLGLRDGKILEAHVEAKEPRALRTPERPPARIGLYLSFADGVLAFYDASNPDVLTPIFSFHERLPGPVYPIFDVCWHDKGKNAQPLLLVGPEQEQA

Regarding “caveolin-3 overexpressed from pcDNA-Cav-3”, the reduction in the appearance of filapodia-like structures came out at 82%.
